Test results: US20260327578A1, “TRANSGLUTAMINASES AND USES THEREOF” (CURIE CO. INC., priority 2023, published 2026)
Changes are numbered by the printed parent chain. In names and notes the source's numbering stands.

B1: S5: Tgase variant S2P Q39N Q51E relative to SEQ ID NO: 2 (protein, UniProt P81453 77-407, looked up, variant S2P Q39N Q51E)
Protein-glutamine …: DPDDRVTPPAEPLDRMPDPYRPSYGRAETVVNNYIRKWNQVYSHRDGRKQEMTEEQREWLSYGCVGVTWVNSGQYPTNRLAFASFDEDRFKNELKNGRPRSGETRAEFEGRVAKESFDEEKGFQRAREVASVMNRALENAHDESAYLDNLKKELANGNDALRNEDARSPFYSALRNTPSFKERNGGNHDPSRMKAVIYSKHFWSGQDRSSSADKRKYGDPDAFRPAPGTGLVDMSRDRNIPRSPTSPGEGFVNFDYGWFGAQTEADADKTVWTHGNHYHAPNGSLGAMHVYESKFRNWSEGYSDFDRGAYVITFIPKSWNTAPDKVKQGWP
B2: S18: Tgase variant S2P K49H Q50A Q74C Q124L K151R K152R relative to SEQ ID NO: 2 (protein, UniProt P81453 77-407, looked up, variant S2P K49H Q50A Q74C Q124L K151R K152R)
Protein-glutamine …: B1 Protein-glutamine … with N39Q, K49H, Q50A, E51Q, Q74C, Q124L, K151R, K152R
B3: S4: Tgase variant S2P Q51P relative to SEQ ID NO: 2 (protein, UniProt P81453 77-407, looked up, variant S2P Q51P)
Protein-glutamine …: B1 Protein-glutamine … with N39Q, E51P
B4: S13: Tgase variant S2P Q124N K151R K152R relative to SEQ ID NO: 2 (protein, UniProt P81453 77-407, looked up, variant S2P Q124N K151R K152R)
Protein-glutamine …: B1 Protein-glutamine … with N39Q, E51Q, Q124N, K151R, K152R
B5: S11: Tgase variant S2P Q124I K151R K152R relative to SEQ ID NO: 2 (protein, UniProt P81453 77-407, looked up, variant S2P Q124I K151R K152R)
Protein-glutamine …: B1 Protein-glutamine … with N39Q, E51Q, Q124I, K151R, K152R
B6: S8: Tgase variant S2P K49T Q74F relative to SEQ ID NO: 2 (protein, UniProt P81453 77-407, looked up, variant S2P K49T Q74F)
Protein-glutamine …: B1 Protein-glutamine … with N39Q, K49T, E51Q, Q74F
B7: S20: Tgase variant S2P Q51A Q74T K95I Q124L K151R K152R relative to SEQ ID NO: 2 (protein, UniProt P81453 77-407, looked up, variant S2P Q51A Q74T K95I Q124L K151R K152R)
Protein-glutamine …: B1 Protein-glutamine … with N39Q, E51A, Q74T, K95I, Q124L, K151R, K152R
B8: S19: Tgase variant S2P K49H Q50A Q74C Q124N K151R K152R relative to SEQ ID NO: 2 (protein, UniProt P81453 77-407, looked up, variant S2P K49H Q50A Q74C Q124N K151R K152R)
Protein-glutamine …: B1 Protein-glutamine … with N39Q, K49H, Q50A, E51Q, Q74C, Q124N, K151R, K152R
B9: S7: Tgase variant S2P K49T Q74M relative to SEQ ID NO: 2 (protein, UniProt P81453 77-407, looked up, variant S2P K49T Q74M)
Protein-glutamine …: B1 Protein-glutamine … with N39Q, K49T, E51Q, Q74M
B10: S10: Tgase variant S2P Q124E K151R K152R relative to SEQ ID NO: 2 (protein, UniProt P81453 77-407, looked up, variant S2P Q124E K151R K152R)
Protein-glutamine …: B1 Protein-glutamine … with N39Q, E51Q, Q124E, K151R, K152R
B11: S16: Tgase variant S2P Q50S Q74A K91H Q124L K151R K152R relative to SEQ ID NO: 2 (protein, UniProt P81453 77-407, looked up, variant S2P Q50S Q74A K91H Q124L K151R K152R)
Protein-glutamine …: B1 Protein-glutamine … with N39Q, Q50S, E51Q, Q74A, K91H, Q124L, K151R, K152R
B12: S21: Tgase variant S2P Q50T Q51A Q74M K95E Q124L K151R K152R relative to SEQ ID NO: 2 (protein, UniProt P81453 77-407, looked up, variant S2P Q50T Q51A Q74M K95E Q124L K151R K152R)
Protein-glutamine …: B1 Protein-glutamine … with N39Q, Q50T, E51A, Q74M, K95E, Q124L, K151R, K152R
B13: S12: Tgase variant S2P Q124L K151R K152R relative to SEQ ID NO: 2 (protein, UniProt P81453 77-407, looked up, variant S2P Q124L K151R K152R)
Protein-glutamine …: B1 Protein-glutamine … with N39Q, E51Q, Q124L, K151R, K152R
B14: S9: Tgase variant S2P Q51I K95I relative to SEQ ID NO: 2 (protein, UniProt P81453 77-407, looked up, variant S2P Q51I K95I)
Protein-glutamine …: B1 Protein-glutamine … with N39Q, E51I, K95I
B15: S17: Tgase variant S2P Q50S Q74A K91H Q124N K151R K152R relative to SEQ ID NO: 2 (protein, UniProt P81453 77-407, looked up, variant S2P Q50S Q74A K91H Q124N K151R K152R)
Protein-glutamine …: B1 Protein-glutamine … with N39Q, Q50S, E51Q, Q74A, K91H, Q124N, K151R, K152R
B16: S14: Tgase variant S2P Q50S Q51E Q56E relative to SEQ ID NO: 2 (protein, UniProt P81453 77-407, looked up, variant S2P Q50S Q51E Q56E)
Protein-glutamine …: B1 Protein-glutamine … with N39Q, Q50S, Q56E
B17: S15: Tgase variant S2P Q51P Q56M Q74A K91E relative to SEQ ID NO: 2 (protein, UniProt P81453 77-407, looked up, variant S2P Q51P Q56M Q74A K91E)
Protein-glutamine …: B1 Protein-glutamine … with N39Q, E51P, Q56M, Q74A, K91E
B18: S6: Tgase variant S2P Q56M Q74S relative to SEQ ID NO: 2 (protein, UniProt P81453 77-407, looked up, variant S2P Q56M Q74S)
Protein-glutamine …: B1 Protein-glutamine … with N39Q, E51Q, Q56M, Q74S
B19: S1: Tgase variant S2P Q50H relative to SEQ ID NO: 2 (protein, UniProt P81453 77-407, looked up, variant S2P Q50H)
Protein-glutamine …: B1 Protein-glutamine … with N39Q, Q50H, E51Q
B20: S2: Tgase variant S2P Q74V relative to SEQ ID NO: 2 (protein, UniProt P81453 77-407, looked up, variant S2P Q74V)
Protein-glutamine …: B1 Protein-glutamine … with N39Q, E51Q, Q74V
B21: S3: Tgase variant S2P Q50A relative to SEQ ID NO: 2 (protein, UniProt P81453 77-407, looked up, variant S2P Q50A)
Protein-glutamine …: B1 Protein-glutamine … with N39Q, Q50A, E51Q
B22: A4: Tgase variant S2P Q50S Q74A K91H Q124L K151R K152R N282Q S284A H289I relative to SEQ ID NO: 2 (protein, UniProt P81453 77-407, looked up, variant S2P Q50S Q74A K91H Q124L K151R K152R N282Q S284A H289I)
Protein-glutamine …: DPDDRVTPPAEPLDRMPDPYRPSYGRAETVVNNYIRKWQQVYSHRDGRKSQMTEEQREWLSYGCVGVTWVNSGAYPTNRLAFASFDEDRFHNELKNGRPRSGETRAEFEGRVAKESFDEEKGFLRAREVASVMNRALENAHDESAYLDNLRRELANGNDALRNEDARSPFYSALRNTPSFKERNGGNHDPSRMKAVIYSKHFWSGQDRSSSADKRKYGDPDAFRPAPGTGLVDMSRDRNIPRSPTSPGEGFVNFDYGWFGAQTEADADKTVWTHGNHYHAPQGALGAMIVYESKFRNWSEGYSDFDRGAYVITFIPKSWNTAPDKVKQGWP

System: N,N-dimethylcasein
Test: Chemostability: residual Tgase activity after 24 hour incubation at 20-30 °C, normalized to wild-type
Format: biochemical
Conditions: improvement relative to wild-type mature Tgase (SEQ ID NO: 2); residual activity after 24 h at 20-30 °C in cell-free extract
Experimental: Table 5 depicts variants of Streptomyces mobaraensis Tgase and improvement to stability relative to wild-type mature Tgase (SEQ ID NO. 2) as determined in Example 3. Numbering of amino acid positions is in reference to the mature S. mobaraensis Tgase sequence depicted in SEQ ID NO. 2. A “+” indicates an improvement between 1.2 and 2-fold. A “++” indicates an improvement greater than 2-fold.
To evaluate chemostability, Tgase samples in cell-free extract were assayed for activity, using the assay described in Example 4B, immediately after expression and again following a 24 hour incubation at 20-30° C. Mature Tgase variant residual activity was normalized to the residual activity of the wild-type and results are depicted in Table 5.
(§1) Protein functionalization by Tgase variants was determined by the fluorogenic labeling of casein using monodansylcadaverine (e.g., a commercially available kit such as the Transglutaminase Fluorogenic Activity Assay Kit, T036, Zedira, Germany). Tgase activity was monitored by measuring fluorescence (excitation wavelength 332 nm; emission wavelength 500 nm) using a BioTek Synergy H1 microplate reader. Transglutaminase-catalyzed covalent coupling (crosslinking) of monodansylcadaverine with N,N-dimethylcasein produces a product that causes a shift in intensity and wavelength of fluorescence of the dansyl group now linked to the casein. The relative transglutaminase activity is shown by increase of fluorescence intensity over time. Enzyme variant loading was optimized based on expression levels, ensuring enzyme was the rate limiting factor. Briefly, cell-free reactions (set up as described in Example 2A) were first diluted 10-fold using phosphate buffer, pH 7.4, and a 5 microliter aliquot was analyzed.

Row | Molecule | Stability
1 | B1 | + (an improvement between 1.2 and 2-fold)
2 | B2 | + (an improvement between 1.2 and 2-fold)
3 | B3 | + (an improvement between 1.2 and 2-fold)
4 | B4 | + (an improvement between 1.2 and 2-fold)
5 | B5 | ++ (an improvement greater than 2-fold)
6 | B6 | + (an improvement between 1.2 and 2-fold)
7 | B7 | + (an improvement between 1.2 and 2-fold)
8 | B8 | + (an improvement between 1.2 and 2-fold)
9 | B9 | + (an improvement between 1.2 and 2-fold)
10 | B10 | ++ (an improvement greater than 2-fold)
11 | B11 | ++ (an improvement greater than 2-fold)
12 | B12 | + (an improvement between 1.2 and 2-fold)
13 | B13 | ++ (an improvement greater than 2-fold)
14 | B14 | + (an improvement between 1.2 and 2-fold)
15 | B15 | + (an improvement between 1.2 and 2-fold)
16 | B16 | ++ (an improvement greater than 2-fold)
17 | B17 | ++ (an improvement greater than 2-fold)
18 | B18 | ++ (an improvement greater than 2-fold)
19 | B19 | ++ (an improvement greater than 2-fold)
20 | B20 | ++ (an improvement greater than 2-fold)
21 | B21 | ++ (an improvement greater than 2-fold)

System: N,N-dimethylcasein
Test: Productivity: total product formed after 24 hours (protein functionalization assay)
Format: biochemical
Conditions: improvement relative to wild-type Tgase (SEQ ID NO: 2); total product after 24 h
Experimental: (§2) Enzymatic “productivity” is a measure of product formation or substrate disappearance over time, at a prescribed temperature under specified reaction conditions. It is the measure both the durability and reaction yield of the enzyme variant. In this instance, productivity is defined as total product formed over 24-hours at a constant substrate concentration when the enzyme is the rate limiting factor. The time is defined as 24 hours, which represents approaching or surpassing burnout, denaturation, or self-reaction of the enzyme variant. In other words, variants with higher productivity deliver a higher product yield in 24-hours than variants with lower productivity produce in the same period of time. “Rate” refers to the initial rate for an enzymatic reaction, at a prescribed temperature under specified reaction conditions. The enzyme produces product at an initial rate that is approximately linear for a short period after the start of the reaction. When concentrations of enzyme and substrate are the same across the sample set, initial rates between enzyme variants can be compared. In this instance, the linear range for production of product occurs in one hour. Enzyme variants with faster initial rates deliver a higher product yield in one hour than variants with slower initial rates produce at the same time-period. In some cases, improvements to initial rates also deliver a more productive variant. In some cases, improvements to initial rates result in faster decay of the enzyme variant reducing overall enzymatic productivity. Productivity and rate may be assessed as described in Example 2.
(§3) Table 6 depicts variants of Streptomyces mobaraensis Tgase and improvement to productivity and/or rate relative to wild-type Tgase (SEQ ID NO. 2) as determined in Example 3. Numbering of amino acid positions is in reference to the mature S. mobaraensis Tgase sequence depicted in SEQ ID NO. 2. A “−” indicates a reduction in activity. A “+” indicates an improvement between 1.2 and 2-fold. A “++” indicates an improvement between 2 and 5-fold. A “+++” indicates an improvement greater than 5-fold.
To evaluate productivity, total product formed was measured after 24-hours of incubation, using the assay described in Example 4B. The time is defined as 24 hours which represents approaching or surpassing burnout, denaturation, or self-reaction of the enzyme variant.
as §1

Row | Molecule | Productivity
22 | B22 | + (an improvement between 1.2 and 2-fold)

System: N,N-dimethylcasein
Test: Rate of product formation over 60 minutes (protein functionalization assay)
Format: biochemical
Set-up: key: −: a reduction in activity; +: an improvement between 1.2 and 2-fold; ++: an improvement between 2 and 5-fold; +++: an improvement greater than 5-fold
Conditions: improvement relative to wild-type Tgase (SEQ ID NO: 2); initial rate over 60 min
Experimental: as §2, §3
Rate was assessed by measuring the rate of product formation over 60 minutes of incubation using a kinetic method to take scans every 60 seconds to determine product formation, using reaction conditions as described in Example 4B. The enzyme produces product at an initial rate that is approximately linear for the first one hour of the reaction. The concentrations of enzyme and substrate are the same across the sample set for each enzyme variant. Enzyme variants with faster initial rates deliver a higher product yield in one hour than variants with slower initial rates produce at the same time-period.
as §1

Row | Molecule | Rate
23 | B22 | −
